Assay results: patent publication US20230265217A1 (TWIST BIOSCIENCE, published 2023)
Like-named read-outs stand apart in the source and are kept apart here.

Tests used:
Assay in all cases: Carterra SPR
[1] = molecular target: T1, Antibody 178-10_His CA_W152C_L452R_D614G (27081) (SARS-CoV-2, UniProt P0DTC2 14-685)
T1 construct: domain: S1; also called CA variant S1; California variant S1

[2] = molecular target: T2, Antibody 178-08_His 501.V2 (27079) (SARS-CoV-2, UniProt P0DTC2 14-685)
T2 construct: domain: S1; also called TB178-8

[3] = molecular target: T3, Antibody 178-09_His B.1.1.7 (27080) (SARS-CoV-2, UniProt P0DTC2 14-685)
T3 construct: domain: S1; also called TB178-9

[4] = molecular target: T4, S1 RBD L452R E484Q (Acro) (SARS-CoV-2, UniProt P0DTC2 319-537)
T4 construct: domain: S1 RBD; also called SARS-COV-2 RBD India Var; L452R E484Q S1; India variant mutation L452R E484Q

[5] = molecular target: T1, Antibody 178-10_His …; remark: listed apart in the source

Binder | binding result [1] | binding result [2] | Kd [3] [nM] | binding result [4] | Kd [1] [nM] | binding result [3] | Kd [2] [nM] | Kd [5] [nM]
7-29 (VHH, not shown: a dimerising Fc or GST) VHH: EVQLVESGGGLVQPGGSLRLSCAASGRTHSIYPMGWFRQAPGKEREFVASITSYGDTNYADSVKGRFTISADNSKNTAYLQMNSLKPEDTAVYYCAARRWIPPGPIWGQGTLVTVSS | no binding | no binding | 54.8 | no binding |  |  |  | 
7-21 (VHH) VHH: EVQLVESGGGLVQPGGSLRLSCAASGRTISRYTMGWFRQAPGKEREFVASITSGGSTAYADSVKGRFTISADNSKNTAYLQMNSLKPEDTAVYYCAKEDVGKPFDWGQGTLVTVSS |  | no binding | 35.6 | no binding | 277 |  |  | 
7-41 (VHH) VHH: EVQLVESGGGLVQPGGSLRLSCAASGRTFSTYVMGWFRQAPGKEREFVASISSRGITHYADSVKGRFTISADNSKNTAYLQMNSLKPEDTAVYYCAKEDVGKPFDWGQGTLVTVSS |  | no binding | 35.6 | no binding | 95.5 |  |  | 
7-22 (VHH, not shown: a dimerising Fc or GST) VHH: EVQLVESGGGLVQPGGSLRLSCAASGRTITRYTMGWFRQAPGKEREFVASITSGGSTAYADSVKGRFTISADNSKNTAYLQMNSLKPEDTAVYYCAKQDVGKPFDWGQGTLVTVSS |  | no binding | 41.7 | no binding | 698 |  |  | 
7-40 (VHH) VHH: EVQLVESGGGLVQPGGSLRLSCAASGRTFRRYTMGWFRQAPGKEREFVASITKFGSTNYADSVKGRFTISADNSKNTAYLQMNSLKPEDTAVYYCAKEDVGKPFDWGQGTLVTVSS | no binding | no binding |  | no binding |  | no binding |  | 
7-45 (VHH) VHH: EVQLVESGGGLVQPGGSLRLSCAASGRTLSRYTMGWFRQAPGKEREFVASITSGGSTNYADSVKGRFTISADNSKNTAYLQMNSLKPEDTAVYYCAKEDVGKPFDWGQGTLVTVSS | no binding | no binding | 43.4 | no binding |  |  |  | 
3-17 (VHH, not shown: a dimerising Fc or GST) VHH: EVQLVESGGGLVQPGGSLRLSCAASGRTSSSAVMGWFRQAPGKEREFVAAINRGGSTIYVDSVKGRFTISADNSKNTAYLQMNSLKPEDTAVYYCATGPYRSYFARSYLWGQGTLVTVSS | no binding | no binding |  | no binding |  | no binding |  | 
8-06 (VHH, not shown: a dimerising Fc or GST, also called 8-6) VHH: EVQLVESGGGLVQPGGSLRLSCAASGFTFDYYAMGWFRQAPGKEREFVSAIDSEGRTSYADSVKGRFTISADNSKNTAYLQMNSLKPEDTAVYYCARWGPFDIWGQGTLVTVSS | no binding | no binding | 141 |  |  |  |  | 
8-10 (VHH, not shown: a dimerising Fc or GST) VHH: EVQLVESGGGLVQPGGSLRLSCAASGFIGNYHAMGWFRQAPGKEREFVAAVTWSGGTTNYADSVKGRFTISADNSKNTAYLQMNSLKPEDTAVYYCAREGYYYDSSGYPYYFDYWGQGTLVTVSS | no binding | no binding | 377 |  |  |  |  | 
7-6 (VHH, not shown: a dimerising Fc or GST) VHH: EVQLVESGGGLVQPGGSLRLSCAASGRIFYPMGWFRQAPGKEREFVAAVRWSSTGIYYTQYADSVKGRFTISADNSKNTAYLQMNSLKPEDTAVYYCAAALSEVWRGSENLREGYDWGQGTLVTVSS | no binding | no binding | 42.4 | no binding |  |  |  | 
7-8 (VHH) VHH: EVQLVESGGGLVQPGGSLRLSCAASGSTFTINAMGWFRQAPGKEREFVSGISHNGGTTNYADSVKGRFTISADNSKNTAYLQMNSLKPEDTAVYYCAADGVPEYSDYASGPVWGQGTLVTVSS | no binding | no binding |  | no binding |  | no binding |  | 
7-17 (VHH, not shown: a dimerising Fc or GST) VHH: EVQLVESGGGLVQPGGSLRLSCAASGFSLDYYGMGWFRQAPGKEREFVAAITSGGTPHYADSVKGRFTISADNSKNTAYLQMNSLKPEDTAVYYCASAYNPGIGYDWGQGTLVTVSS | no binding | no binding | 39.8 |  |  |  |  | 
3-24 (VHH, not shown: a dimerising Fc or GST) VHH: EVQLVESGGGLVQPGGSLRLSCAASGINFSRYGMGWFRQAPGKEREFVASITYLGRTNYADSVKGRFTISADNSKNTAYLQMNSLKPEDTAVYYCALRVRPYGQYDWGQGTLVTVSS | no binding |  | 2610 | no binding |  |  | 586 | 
5A-1 (VHH) VHH: EVQLVESGGGLVQPGGSLRLSCAASGGTFSSIGMGWFRQAPGKEREFVAAISWDGGATAYADSVKGRFTISADNSKNTAYLQMNSLKPEDTAVYYCAKEDVGKPFDWGQGTLVTVSS |  |  |  |  |  |  |  | 12.7
6A-3 (VHH) VHH: EVQLVESGGGLVQPGGSLRLSCAASGFTFSPSWMGWFRQAPGKEREFVATINEYGGRNYADSVKGRFTISADNSKNTAYLQMNSLKPEDTAVYYCARVDRDFDYWGQGTLVTVSS |  |  |  |  |  |  |  | 26.8
7-31 (VHH, not shown: a dimerising Fc or GST) VHH: EVQLVESGGGLVQPGGSLRLSCAASGFTFSNYSMGWFRQAPGKEREFVAAIHWNGDSTAYADSVKGRFTISADNSKNTAYLQMNSLKPEDTAVYYCAAQTEDSAQYIWGQGTLVTVSS | no binding | no binding | 388 | no binding |  |  |  | 
7-32 (VHH) VHH: EVQLVESGGGLVQPGGSLRLSCAASGSTFSVNAMGWFRQAPGKEREFVAGVTRGGYTNYADSVKGRFTISADNSKNTAYLQMNSLKPEDTAVYYCAADGVPEYSDYASGPVWGQGTLVTVSS | no binding | no binding | 62.4 | no binding |  |  |  | 
7-24 (VHH, not shown: a dimerising Fc or GST) VHH: EVQLVESGGGLVQPGGSLRLSCAASGFTFSRHAMNWFRQAPGKEREFVSTITGSGGSTNYADSVKGRFTISADNSKNTAYLQMNSLKPEDTAVYYCAREVGLYYYGSGSSSRRLLGRIDYYFDYWGQGTLVTVSS | no binding | no binding |  | no binding |  | no binding |  | 
8-3 (VHH, not shown: a dimerising Fc or GST) VHH: EVQLVESGGGLVQPGGSLRLSCAASGTTLDYYAMGWFRQAPGKEREFVAAISWSGGSTAYADSVKGRFTISADNSKNTAYLQMNSLKPEDTAVYYCAREDYYDSSGYSWGQGTLVTVSS |  |  | 40.5 | no binding | 100 |  | 1.7 | 
